Test results published in US20250084155A1 (University of Texas, published 2025).

Assays:
[1] = molecular target: human HSP70 made in E. coli (human, UniProt P0DMV8 1-641, limits assumed); assay: Octet (BLI)
[2] = molecular target: T1, human HSP70 made in Sf9 insect cells (human, UniProt P0DMV8 1-641, limits assumed); assay: Octet (BLI)
T1 construct: also called HSP70 made in eukaryotic insect Sf9 cells

murine HSP70 = murine HSP70 (murine, UniProt P17879 1-642); assay: Octet (BLI)
[3] = molecular target: T2, ADP-HSP70 (ADP-enriched HSP70, expressed in SF9 cells) (human, UniProt P0DMV8 1-641, limits assumed); assay: BLI, 77A on sensor
T2 sequence (P0DMV8 whole entry): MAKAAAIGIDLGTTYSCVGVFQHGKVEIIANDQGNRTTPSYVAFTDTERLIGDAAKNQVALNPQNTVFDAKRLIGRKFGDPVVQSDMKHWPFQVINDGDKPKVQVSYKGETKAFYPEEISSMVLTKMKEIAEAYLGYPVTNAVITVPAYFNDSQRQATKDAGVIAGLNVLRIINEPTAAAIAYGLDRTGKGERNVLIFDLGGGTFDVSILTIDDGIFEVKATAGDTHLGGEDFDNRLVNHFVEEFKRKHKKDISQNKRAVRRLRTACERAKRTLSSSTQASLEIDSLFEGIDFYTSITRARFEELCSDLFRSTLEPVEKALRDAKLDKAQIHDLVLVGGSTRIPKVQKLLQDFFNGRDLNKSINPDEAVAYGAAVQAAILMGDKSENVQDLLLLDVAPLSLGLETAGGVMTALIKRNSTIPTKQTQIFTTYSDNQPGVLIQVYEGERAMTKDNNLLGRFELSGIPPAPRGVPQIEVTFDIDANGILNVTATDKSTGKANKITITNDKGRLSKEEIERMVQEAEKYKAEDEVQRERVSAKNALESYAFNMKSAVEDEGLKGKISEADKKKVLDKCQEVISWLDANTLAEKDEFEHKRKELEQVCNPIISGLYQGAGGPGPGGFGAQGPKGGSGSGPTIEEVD
Description: (§1) HSP70 was expressed in SF9 cells. Affinity chromatography using resins selective for ADP or ATP-binding proteins were used to enrich bulk preparations of the correspondingly bound HSP70 recombinant protein. Protein concentrations, determined after elution, were measured so that equal concentrations could be used in subsequent assays. For BLI-based assays, antibodies and reagents were diluted out onto microwell plates and loaded into the instrument. Antibodies being tested were immobilized onto dip-and-read sensors and then observed for kinetics during binding to ATP or ADP-enriched HSP70. For ELISA, the relevant enriched HSP70 proteins were directly coated onto ELISA plate wells overnight. Test antibodies were then serially diluted across the plate wells, and detected using an appropriate secondary antibody-HRP conjugate. The plates were developed using a TMB substrate, and the O.D. stabilized using an acid stop solution.

[4] = molecular target: T2, ADP-HSP70 (ADP-enriched HSP70, …); assay: ELISA, HSP70 coated
Description: as §1
(§2) ELISA data, shown in FIG. 18, depicted the same trend, in which 77A had higher maximal absorbance with the ADP-enriched HSP70 than the ATP-enriched HSP70.

[5] = molecular target: T3, ATP-HSP70 (ATP-enriched HSP70, expressed in SF9 cells) (human, UniProt P0DMV8 1-641, limits assumed); assay: ELISA, HSP70 coated
T3 sequence (P0DMV8 whole entry): as above
Description: as §1, §2

[6] = molecular target: T4, HSP70 (human HSP70; the antigen of the binning, humanization and variant binding assays) (human, UniProt P0DMV8 1-641, limits assumed); assay: BLI, antibody on sensor
T4 construct: also called hu HSP70
T4 sequence (P0DMV8 whole entry, change not shown): as the sequence (P0DMV8 whole entry) above
Description: Humanized variants were characterized for binding using biolayer interferometry (BLI). Chimeric antibodies including the murine 77A antigen binding region and human Fe regions were also tested. Antibodies and reagents were diluted out onto microwell plates and loaded into the instrument. Diluted antibodies were first immobilized onto dip-and-read sensors, and then measurements for baselines were acquired. Subsequently, the sensors were dipped into wells containing the antigen in solution, or buffer alone. The change in number of molecules bound to the sensor was quantified by measurement of the shift in the interference pattern of light during each step of the protocol. Mathematical modeling was performed based on those values and the concentrations of reagents used in the assay and used to calculate kinetics values.

[7] = molecular target: T2, ADP-HSP70 (ADP-enriched HSP70, …); assay: BLI, 77A on sensor, ADP-HSP70 at 75 (µM)
Description: as §1

[8] = molecular target: T3, ATP-HSP70 (ATP-enriched HSP70, …); assay: BLI, 77A on sensor, ATP-HSP70 at 75 (µM)
Description: as §1

[9] = molecular target: T2, ADP-HSP70 (ADP-enriched HSP70, …); assay: BLI, 77A on sensor, ADP-HSP70 at 150 (µM)
Description: as §1

[10] = molecular target: T2, ADP-HSP70 (ADP-enriched HSP70, …); assay: BLI, 77A on sensor, ADP-HSP70 at 300 (µM)
Description: as §1

[11] = molecular target: T3, ATP-HSP70 (ATP-enriched HSP70, …); assay: BLI, 77A on sensor, ATP-HSP70 at 150 (µM)
Description: as §1

[12] = molecular target: T3, ATP-HSP70 (ATP-enriched HSP70, …); assay: BLI, 77A on sensor, ATP-HSP70 at 300 (µM)
Description: as §1

[13] = molecular target: T2, ADP-HSP70 (ADP-enriched HSP70, …); assay: BLI, 77A on sensor, ADP-HSP70 at 37.5 (µM)
Description: as §1

504 = molecular target: T5, 504 (N-terminal GFP fusion; GFP is not in the letters); assay: immunoprecipitation with 77A from extracts of HSP70 KO 293T cells, Western blot with anti-GFP [panel B]
T5 construct: not shown: N-terminal GFP fusion partner and any linker

recombinant human FcγR2A = molecular target: T6, recombinant human FcγR2A (human, UniProt P12318 36-218); assay: ELISA on coated recombinant human FcγR2A; monomeric antibody; OD 450 nm
T6 sequence (looked up): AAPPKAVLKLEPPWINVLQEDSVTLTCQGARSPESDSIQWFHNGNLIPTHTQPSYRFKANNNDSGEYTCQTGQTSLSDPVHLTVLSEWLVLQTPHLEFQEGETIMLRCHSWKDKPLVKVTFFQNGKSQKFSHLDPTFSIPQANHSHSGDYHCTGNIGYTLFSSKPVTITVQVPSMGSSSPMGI
Description: ELISA assays were performed to assess binding to coated FcγR2A by either the monomeric antibody or the antibody in complex with HSP70. Briefly, the assay was performed by coating plates with recombinant human FcγR2A overnight at 0.3 μg/mL. Plates were then washed three times with 300 μL of 1×PBST, and then blocked using 150 µL of SuperBlock per well for 1 hr. Washing was repeated as before, then the dilution series of any of the antibody variants (referred to as “monomeric antibody”) or any of the or antibody immuno-complexes (hereafter referred to as “77A ICX”) were added. To make each dilution series, the following was performed: HSP70 was held constant, and first prepared at a 2× concentration of 200 nM. Antibody was first prepared at 600 nM (2× starting concentration) for the first well, and then serially diluted in three-fold increments using 1× PBST. For use in the assay as monomeric antibody, 80 μL of each 2× antibody dilution was added to 80 μL of 1×PBST and mixed well by pipette to make a 1× dilution series, with the highest concentration being 300 nM. To form the 77A ICX, 80 μL of each 2× antibody dilution was added to 80 μL of 2× HSP70 and mixed well by pipette. […] Plates were then read on a plate reader at 450 and 540 nm wavelengths.

Chain of murine HSP70 (P17879 other isoform, or with tags, fused parts or gaps): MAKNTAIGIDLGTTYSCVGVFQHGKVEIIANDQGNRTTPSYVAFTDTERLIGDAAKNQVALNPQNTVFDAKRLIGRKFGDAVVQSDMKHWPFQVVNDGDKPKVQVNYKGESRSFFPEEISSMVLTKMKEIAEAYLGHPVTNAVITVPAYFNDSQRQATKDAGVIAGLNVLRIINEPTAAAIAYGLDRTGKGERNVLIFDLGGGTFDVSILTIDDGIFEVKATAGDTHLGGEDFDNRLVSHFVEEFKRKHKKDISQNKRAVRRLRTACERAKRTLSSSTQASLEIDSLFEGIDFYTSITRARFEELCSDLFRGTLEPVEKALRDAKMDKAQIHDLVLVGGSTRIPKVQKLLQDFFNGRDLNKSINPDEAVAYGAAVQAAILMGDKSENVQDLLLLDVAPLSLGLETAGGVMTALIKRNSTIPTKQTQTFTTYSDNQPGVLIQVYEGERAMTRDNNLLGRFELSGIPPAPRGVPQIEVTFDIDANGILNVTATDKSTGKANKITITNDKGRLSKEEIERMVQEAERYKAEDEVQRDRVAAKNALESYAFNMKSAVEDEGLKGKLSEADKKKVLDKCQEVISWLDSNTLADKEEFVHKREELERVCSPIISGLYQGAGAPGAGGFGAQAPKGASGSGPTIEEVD
T1 sequence (P0DMV8 whole entry): as the sequence (P0DMV8 whole entry) above
Chain of human HSP70 made in E. coli (P0DMV8 whole entry): as above

B1: 77A antibody (clone 77A, murine anti-HSP70 monoclonal antibody) (antibody, V domains shown)
VH: QIQLVQSGPELKKPGETVKISCKASGYTFTNYGMNWVKQAPGKGLKWMGWINTYTGEPTYADDFKGRFAFSLETSATTAYLQINNLKNEDTATYFCARYDHAMDYWGQGTSVTVSS
VL: DIVMSQSPSSLAVSAGEKVTMSCKSSQSLLNSGTRKNYLAWYQQKPGQSPKLLIYWTSTRESGVPDRFTGSGSGTDFTLTINSVQAEDLAVYYCKQSYTLYTFGGGTKLEIK
notes: murine hybridoma antibody; its isotype control is IgG2B; also called mAb 77A
Kd [1]: 0.85 nM
Kd [2]: < 0.001 nM
Kd (murine HSP70): 988 nM
fold greater affinity (KD) than ATP-enriched HSP70 [3]: ≥ 4 fold
EC50 [4]: 0.737 nM
EC50 [5]: 1.77 nM
Kd [6]: 1.2 nM
koff [6]: 8.08e-05 s⁻¹
kon [6]: 67400 M⁻¹ s⁻¹
Kd [7]: 5.42 nM
koff [7]: 0.000292 s⁻¹
kon [7]: 53800 M⁻¹ s⁻¹
Kd [8]: 20.2 nM
koff [8]: 0.00038 s⁻¹
kon [8]: 18800 M⁻¹ s⁻¹
Kd [9]: 5.42 nM
koff [9]: 0.000292 s⁻¹
kon [9]: 53800 M⁻¹ s⁻¹
Kd [10]: 5.42 nM
koff [10]: 0.000292 s⁻¹
kon [10]: 53800 M⁻¹ s⁻¹
Kd [11]: 20.2 nM
koff [11]: 0.00038 s⁻¹
kon [11]: 18800 M⁻¹ s⁻¹
Kd [12]: 20.2 nM
koff [12]: 0.00038 s⁻¹
kon [12]: 18800 M⁻¹ s⁻¹
Kd [13]: 5.42 nM
koff [13]: 0.000292 s⁻¹
kon [13]: 53800 M⁻¹ s⁻¹
binding result 504: no binding

B2: h77A-1-G1m3-GAALIE (antibody, human IgG1, kappa)
heavy: QIQLVQSGAEVKKPGASVKVSCKASGYTFTNYGMNWVRQAPGQGLEWMGWINTYTGEPTYADDFKGRFTFTTDTSTSTAYMELRSLRSDDTAVYFCARYDHAMDYWGQGTLVTVSSASTKGPSVFPLAPSSKSTSGGTAALGCLVKDYFPEPVTVSWNSGALTSGVHTFPAVLQSSGLYSLSSVVTVPSSSLGTQTYICNVNHKPSNTKVDKRVEPKSCDKTHTCPPCPAPELLAGPSVFLFPPKPKDTLMISRTPEVTCVVVDVSHEDPEVKFNWYVDGVEVHNAKTKPREEQYNSTYRVVSVLTVLHQDWLNGKEYKCKVSNKALPLPEEKTISKAKGQPREPQVYTLPPSREEMTKNQVSLTCLVKGFYPSDIAVEWESNGQPENNYKTTPPVLDSDGSFFLYSKLTVDKSRWQQGNVFSCSVMHEALHNHYTQKSLSLSPGK
light: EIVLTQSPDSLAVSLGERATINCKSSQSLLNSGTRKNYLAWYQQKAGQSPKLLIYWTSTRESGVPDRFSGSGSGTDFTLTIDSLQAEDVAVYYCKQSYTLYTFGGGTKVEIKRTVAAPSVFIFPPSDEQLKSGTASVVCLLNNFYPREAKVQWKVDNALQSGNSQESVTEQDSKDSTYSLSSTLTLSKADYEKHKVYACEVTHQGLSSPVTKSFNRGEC
notes: IgG1 G236A/A330L/I332E (EU) Fc variant; also called 77A^GAALIE; copies: 2 + 2
binding result (recombinant human FcγR2A): binds
